The source of these data is paper PMC5120204, “Identification of an orally active small-molecule PTHR1 agonist for the treatment of hypoparathyroidism” (Nature Communications, 2016).

The subject of data set [1] is TPTX rats. Put plainly: Repeated administration study in TPTX rats, study 1. It is filed as in vivo, rat. As to the method: TPTX was carried out in 6-week-old female Crl:CD (SD) rats (Charles River Laboratories). Rats with serum Ca levels of <8.0 mg dl^−1 at 5 days after surgery were used in the following experiments. The rats were divided into four groups both in study 1 and 2, each with a similar mean value of serum Ca levels and body weight. Sample sizes were determined as described in the above single administration study. To evaluate the calcemic effects of PCO371 and hPTHs, we defined a target therapeutic range for serum Ca of 7.6–11.2 mg dl^−1, which corresponds to the low normal to normal range of serum Ca levels.
TPTX rats were treated twice daily (at around 09:00 and 19:00 hours) orally (vehicle or PCO371 at 1, 3 or 9 mg kg^−1) or subcutaneously [hPTH(1–34) or vehicle at 9 nmol kg^−1] for 4 weeks. Four rats were assigned to sham control, and treated with vehicle for PCO371. Vehicles for PCO371 and hPTH(1–34) were the same as in the OVX rat study. Under isoflurane anaesthesia, jugular vein blood was collected immediately before and at 6 and 10 h (for PCO371) or at 1 and 10 h (for hPTH) after administrations to measure the serum Ca levels on days 1 (the first dosing day), 7, 14, 22 and 29. Urine was collected for 24 h by using metabolic cages on days 29–30, and Ca excretion was calculated from urine volume and Ca level. Under isoflurane anaesthesia, jugular vein blood was collected 10 h after administrations to measure serum 1,25(OH)2D3 levels on Day 29 by using a 1,25(OH)2D3 RIA kit (Fujirebio). Four or five TPTX rats were assigned to each dose group. Serum and urine Ca levels were measured in the same way as in the single-dosing study. In another experiment, TPTX rats were treated subcutaneously once daily with hPTH(1–84) at 9 nmol kg^−1, for 4 weeks. Serum Ca was measured immediately before and at 2, 6 and 10 h after administration on day 1 (the first dosing day), 7, 14, 21 and 28 using the same method as described above. Urine was collected for 24 h by using metabolic cages on days 28 and 29, and Ca excretion was calculated from urine volume and Ca level.

The subject of another data set is patients. Also noted: method as in PMID 23649554. The conditions noted are these: once-daily dosing; cited from earlier work.
A short description of data set [2]: Pharmacokinetics in TPTX rats. In kind it is in vivo, rat.
For data set [3] the following is noted: human; ref Calcifi Tissue Int 2010 87:485, J Bone Miner Res 2013 28:2232, J Pharmcol Exp Ther 2009 330:169; cited from earlier work.
In data set [4] the test system is TPTX rats. Put plainly: Single administration study in TPTX rats. It is filed as in vivo, rat. The conditions noted are these: TPTX studies, 0.9 nmol/kg. Here is the method:
TPTX was carried out in 6-week-old female Crl:CD(SD) rats (Charles River Laboratories). Rats with serum Ca levels of <8.0 mg dl^−1 at 5 days after surgery were used for the experiment. The rats were divided into six groups, each with a similar mean value of serum Ca levels and body weight. TPTX rats were treated once orally (vehicle or PCO371 at 1.3, 6.5 or 33 mg kg^−1) or subcutaneously (vehicle or hPTH(1–84) (Chugai Pharmaceutical) at 9 nmol kg^−1). Six TPTX rats were assigned to each dose group. The sample size was determined based on previous experiments and a published study with hPTHs and LA-PTH in our laboratories[24] (n=5–6). Vehicle for PCO371 was the same as in the OVX rat study, and phosphate-citrate buffer (pH 6.0) was used as vehicle for hPTH(1–84). Under isoflurane anaesthesia, jugular vein blood was collected immediately before and at 1, 2, 6, 10 and 24 h after administrations to measure serum Ca (o-CPC method, Wako Pure Chemical Industries) and Pi levels (xanthine oxidase method, Wako Pure Chemical Industries).
In another experiment, the effects of a single treatment with PCO371 or hPTH(1–34) on serum Ca and Pi in TPTX rats (6-week-old) were evaluated at the dose of 3, 9.5 or 30 mg kg^−1 (PCO371, p.o.) or 9 nmol kg^−1 (hPTH(1–34), s.c.) according to the same method as that described above.

Details of data set [5]: method as in earlier work. As to conditions: rat; ref Calcifi Tissue Int 2010 87:485, J Bone Miner Res 2013 28:2232, J Pharmcol Exp Ther 2009 330:169; cited from earlier work.

Read-outs that look alike come from different tables or passages of the source.

For the substance “hPTH(1–84): the full-length, native PTH molecule called human PTH(1–84) [reference compound]”, the “urinary Ca excretion” value in the data set on TPTX rats [1] (after 4-week treatment, s.c. once daily 9 nmol kg^−1) was “No increase”. The “serum Ca” value in the data set on TPTX rats [1] (subcutaneous 9 nmol kg^−1 for 4 weeks, target therapeutic range 7.6–11.2 mg dl^−1) is “transiently increased serum Ca to within the target therapeutic range”. Further, in the data set with patients, the “duration of observed effects” value is listed as “up to 24 h”, the “patients with hypercalcemia at peak times” value is reported as 71% and the “time of peak Ca levels after administration” value is on record as “around 7 h”. In addition, in data set [2] (s.c. 30 nmol kg-1), the AUC (as a rule, concentration integrated over time) stood at 1.80 ± 0.78 ng·h/mL; the Cmax (commonly the peak of the concentration-time curve) turned out to be 3.42 ± 1.10 ng/mL; the T1/2 is 12 ± 6 min; the Tmax – broadly, the time from dosing to the highest level – was found to be 12 ± 12 min. In addition, in data set [2] (s.c. 100 nmol kg-1), the AUC stood at 8.55 ± 4.63 ng·h/mL, the Cmax was 8.67 ± 1.97 ng/mL, the T1/2 is 102 ± 132 min and the time to peak (Tmax) was 6 ± 6 min. Further, in data set [2] (s.c. 300 nmol kg-1), the AUC amounted to 21.0 ± 5.58 ng·h/mL, the maximum concentration (Cmax) turned out to be 39.7 ± 10.3 ng/mL, the T1/2 is 66 ± 54 min and the Tmax stood at 6 ± 6 min. In addition, in data set [3], the “Tmax at the first peak” value is on record as 15 min and the “Tmax at the second peak” value is given as 120 min. Also, in the data set with TPTX rats [4], the “serum Ca levels” value was “failed to induce any changes”. Besides, in data set [5], the Tmax was 5 to 15 min.
